Experimental data reported in US20230383273.

Experiments:
Assay in all cases: cleavage_in_vitro
[1] = tested on: T1, OMNI-84 (Porphyrobacter donghaensis); conditions: PAM NNNNGCAA; TXTL
T1 sequence: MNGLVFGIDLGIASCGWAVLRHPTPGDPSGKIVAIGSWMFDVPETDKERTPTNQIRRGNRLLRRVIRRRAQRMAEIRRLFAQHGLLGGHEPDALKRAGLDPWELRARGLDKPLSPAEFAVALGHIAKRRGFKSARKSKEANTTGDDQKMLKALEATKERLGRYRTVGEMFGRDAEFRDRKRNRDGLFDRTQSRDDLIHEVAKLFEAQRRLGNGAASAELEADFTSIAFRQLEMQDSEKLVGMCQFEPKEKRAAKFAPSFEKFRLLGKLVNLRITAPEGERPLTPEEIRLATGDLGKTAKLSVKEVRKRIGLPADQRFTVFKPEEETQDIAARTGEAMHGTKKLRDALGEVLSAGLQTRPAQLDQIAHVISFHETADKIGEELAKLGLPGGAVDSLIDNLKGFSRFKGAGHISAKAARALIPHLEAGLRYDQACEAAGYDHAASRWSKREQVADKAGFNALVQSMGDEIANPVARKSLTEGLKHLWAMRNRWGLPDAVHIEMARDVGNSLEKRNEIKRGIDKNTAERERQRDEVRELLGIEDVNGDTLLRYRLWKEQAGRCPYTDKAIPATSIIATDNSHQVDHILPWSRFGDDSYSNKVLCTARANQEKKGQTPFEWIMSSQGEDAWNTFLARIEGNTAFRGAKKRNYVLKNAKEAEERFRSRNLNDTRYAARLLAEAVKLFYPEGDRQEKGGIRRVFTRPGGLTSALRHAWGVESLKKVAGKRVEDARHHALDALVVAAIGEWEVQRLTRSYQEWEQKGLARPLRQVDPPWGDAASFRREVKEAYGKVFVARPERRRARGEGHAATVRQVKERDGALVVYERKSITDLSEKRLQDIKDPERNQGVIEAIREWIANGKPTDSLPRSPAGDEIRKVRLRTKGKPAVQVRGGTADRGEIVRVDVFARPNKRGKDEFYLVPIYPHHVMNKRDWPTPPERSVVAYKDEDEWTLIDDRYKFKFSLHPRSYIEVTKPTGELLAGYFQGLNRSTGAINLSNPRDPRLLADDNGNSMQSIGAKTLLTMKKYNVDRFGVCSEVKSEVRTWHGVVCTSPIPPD

[2] = tested on: T2, OMNI-78 (Notoacmeibacter marinus); conditions: PAM NRRNAT; TXTL
T2 sequence: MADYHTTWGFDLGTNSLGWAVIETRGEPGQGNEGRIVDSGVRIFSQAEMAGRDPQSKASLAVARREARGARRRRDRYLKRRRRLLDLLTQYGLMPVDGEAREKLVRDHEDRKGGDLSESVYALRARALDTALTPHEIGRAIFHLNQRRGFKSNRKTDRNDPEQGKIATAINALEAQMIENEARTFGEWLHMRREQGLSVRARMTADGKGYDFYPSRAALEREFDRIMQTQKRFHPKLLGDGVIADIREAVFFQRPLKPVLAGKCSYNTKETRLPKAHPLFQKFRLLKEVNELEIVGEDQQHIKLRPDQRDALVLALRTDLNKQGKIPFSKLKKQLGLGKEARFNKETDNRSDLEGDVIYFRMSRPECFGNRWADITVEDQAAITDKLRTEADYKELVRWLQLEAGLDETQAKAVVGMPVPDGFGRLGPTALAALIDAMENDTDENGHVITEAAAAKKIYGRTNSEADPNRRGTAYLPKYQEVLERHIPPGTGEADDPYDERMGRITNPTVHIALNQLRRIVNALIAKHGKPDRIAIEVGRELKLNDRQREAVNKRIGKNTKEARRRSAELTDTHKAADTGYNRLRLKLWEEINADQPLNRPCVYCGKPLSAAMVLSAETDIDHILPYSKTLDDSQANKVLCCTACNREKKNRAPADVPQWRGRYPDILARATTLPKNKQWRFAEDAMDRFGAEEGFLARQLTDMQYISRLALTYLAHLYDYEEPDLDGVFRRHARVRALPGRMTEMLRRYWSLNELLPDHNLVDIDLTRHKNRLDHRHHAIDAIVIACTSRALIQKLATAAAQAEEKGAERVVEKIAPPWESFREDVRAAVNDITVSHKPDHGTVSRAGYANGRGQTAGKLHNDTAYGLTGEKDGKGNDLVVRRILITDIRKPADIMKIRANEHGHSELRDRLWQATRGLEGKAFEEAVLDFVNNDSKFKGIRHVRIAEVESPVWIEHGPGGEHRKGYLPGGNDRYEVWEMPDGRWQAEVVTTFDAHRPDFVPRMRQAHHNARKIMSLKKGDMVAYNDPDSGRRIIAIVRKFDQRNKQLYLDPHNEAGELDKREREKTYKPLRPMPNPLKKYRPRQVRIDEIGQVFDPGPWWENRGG

[3] = tested on: T3, OMNI-68 (Gemmiger sp. An50); conditions: PAM NNNVTA; TXTL
T3 sequence: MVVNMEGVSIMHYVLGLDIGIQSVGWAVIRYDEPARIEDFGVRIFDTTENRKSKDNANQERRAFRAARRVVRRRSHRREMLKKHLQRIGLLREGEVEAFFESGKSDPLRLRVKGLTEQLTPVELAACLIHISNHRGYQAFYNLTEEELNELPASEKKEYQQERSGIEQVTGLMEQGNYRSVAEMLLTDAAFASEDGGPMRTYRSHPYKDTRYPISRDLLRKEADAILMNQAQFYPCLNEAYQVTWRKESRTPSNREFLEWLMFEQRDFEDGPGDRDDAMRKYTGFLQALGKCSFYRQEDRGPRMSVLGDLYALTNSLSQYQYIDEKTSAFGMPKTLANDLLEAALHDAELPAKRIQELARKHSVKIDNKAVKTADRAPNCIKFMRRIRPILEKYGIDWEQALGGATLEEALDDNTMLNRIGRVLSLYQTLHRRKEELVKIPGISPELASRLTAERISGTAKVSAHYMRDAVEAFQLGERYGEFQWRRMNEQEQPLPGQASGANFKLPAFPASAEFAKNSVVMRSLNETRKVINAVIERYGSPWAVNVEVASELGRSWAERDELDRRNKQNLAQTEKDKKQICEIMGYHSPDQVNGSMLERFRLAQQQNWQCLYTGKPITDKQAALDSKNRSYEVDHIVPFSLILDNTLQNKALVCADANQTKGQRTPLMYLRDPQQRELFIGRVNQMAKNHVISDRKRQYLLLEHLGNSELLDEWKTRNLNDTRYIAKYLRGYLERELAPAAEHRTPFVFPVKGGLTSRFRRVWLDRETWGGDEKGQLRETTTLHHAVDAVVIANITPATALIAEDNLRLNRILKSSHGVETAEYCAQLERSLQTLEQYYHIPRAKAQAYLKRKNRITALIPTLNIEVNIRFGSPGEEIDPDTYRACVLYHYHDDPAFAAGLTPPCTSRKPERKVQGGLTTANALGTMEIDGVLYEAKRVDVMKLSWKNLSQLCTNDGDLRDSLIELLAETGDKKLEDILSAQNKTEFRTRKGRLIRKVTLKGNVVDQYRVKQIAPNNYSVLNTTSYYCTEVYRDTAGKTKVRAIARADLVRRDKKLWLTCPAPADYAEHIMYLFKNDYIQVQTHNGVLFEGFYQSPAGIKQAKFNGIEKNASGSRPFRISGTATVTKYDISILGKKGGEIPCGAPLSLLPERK

[4] = tested on: T4, OMNI-75 (Lactococcus sp. 1JSPR-7); conditions: PAM NNGNRA; TXTL
T4 sequence: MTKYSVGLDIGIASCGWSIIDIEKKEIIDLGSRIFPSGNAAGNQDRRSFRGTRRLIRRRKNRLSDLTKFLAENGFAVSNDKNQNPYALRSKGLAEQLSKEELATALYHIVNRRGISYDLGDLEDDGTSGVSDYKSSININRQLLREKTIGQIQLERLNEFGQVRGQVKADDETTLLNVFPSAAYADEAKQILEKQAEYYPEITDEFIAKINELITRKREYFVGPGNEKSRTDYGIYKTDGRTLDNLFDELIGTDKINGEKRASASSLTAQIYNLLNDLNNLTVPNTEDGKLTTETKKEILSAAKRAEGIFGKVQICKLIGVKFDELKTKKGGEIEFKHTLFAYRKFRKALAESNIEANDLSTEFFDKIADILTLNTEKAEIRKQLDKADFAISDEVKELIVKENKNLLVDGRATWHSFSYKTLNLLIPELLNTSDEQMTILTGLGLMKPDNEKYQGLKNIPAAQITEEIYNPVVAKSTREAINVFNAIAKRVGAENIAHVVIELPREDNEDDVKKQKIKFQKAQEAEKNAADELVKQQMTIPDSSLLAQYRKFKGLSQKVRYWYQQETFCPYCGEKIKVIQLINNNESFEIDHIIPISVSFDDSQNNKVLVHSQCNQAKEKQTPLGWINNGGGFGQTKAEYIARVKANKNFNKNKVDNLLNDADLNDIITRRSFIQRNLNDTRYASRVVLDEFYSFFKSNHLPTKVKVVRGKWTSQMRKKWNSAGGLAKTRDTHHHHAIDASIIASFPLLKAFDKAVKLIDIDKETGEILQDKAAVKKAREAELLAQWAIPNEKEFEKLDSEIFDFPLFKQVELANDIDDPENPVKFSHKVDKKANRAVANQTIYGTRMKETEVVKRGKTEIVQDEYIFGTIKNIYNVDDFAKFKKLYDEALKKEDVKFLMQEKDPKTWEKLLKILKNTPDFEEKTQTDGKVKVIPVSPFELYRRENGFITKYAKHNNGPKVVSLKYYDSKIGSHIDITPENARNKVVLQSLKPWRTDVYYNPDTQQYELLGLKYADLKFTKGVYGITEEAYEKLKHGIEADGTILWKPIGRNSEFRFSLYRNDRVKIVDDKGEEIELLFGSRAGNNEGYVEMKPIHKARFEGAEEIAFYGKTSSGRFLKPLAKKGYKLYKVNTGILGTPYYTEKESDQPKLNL

Q: With “GGAAGAGCAGAGCCUUGGUCUCGCCGUGGUUUCCCUACCGAUUUGCCCAUGGUAGGGAAAGUUAUCGGCAAAUCGGUAGGGAAGCCACGGUAACAGAGCUUCACUGUGAAGGAUCAUCCUGAAGGGGAAAUUCCUUAUUGAAGCACUGAUACAGAGCUUCUGUAUUCAAACGACCCUUUCUGAGAUAUCAGAGAGGGUCGUUUUU / GGAAGAGCAGAGCCTTGGTCTCNNNNNNNN / NNNNNNNNGAGACCAAGGCTCTGCTCTTCC” as the sequence, how does the activity (1-depletion score) [1] read?
A: Its activity (1-depletion score) is 0.93.

Q: How did the activity (1-depletion score) [2] turn out when “GGAAGAGCAGAGCCUUGGUCUCGUUGCGGUUGGCCUGCGAGAAAUCGCAGUCCAGCCGUUAACAAGCUGAGAUAUGCACCAGAUAAGGCGCUCGCUCCGGCGAGCGCUUUUUU / GGAAGAGCAGAGCCTTGGTCTCNNNNNNNN / NNNNNNNNGAGACCAAGGCTCTGCTCTTCC” was run?
A: Its activity (1-depletion score) is 0.9.

Q: “GGAAGAGCAGAGCCUUGGUCUCGUUUUGGUUCUCUGAUGGGAAACAUCAGAAGUUCUAAGAUAAGGCUUUACGCCGCAGGGUAUGGUGGUAUCCCGAACAAUCCACCGUUUCAGGAAUAGCGCAGCACUGGUUUCCAGUGCUGUUUUU / GGAAGAGCAGAGCCTTGGTCTCNNNNNNNN / NNNNNNNNGAGACCAAGGCTCTGCTCTTCC” was tested. Which activity (1-depletion score) [3] did it give?
A: The activity (1-depletion score) was 0.88.

Q: How did the activity (1-depletion score) [4] turn out when “GGAAGAGCAGAGCCUUGGUCUCGUUUUUGUACUCUCAAGAAAUUGAGAAUCUACAAGGAUAAGGCUUUAUGCCGAAAUCAUUAACUCGCCUUUGGGCGAGUUUUUU / GGAAGAGCAGAGCCTTGGTCTCNNNNNNNN / NNNNNNNNGAGACCAAGGCTCTGCTCTTCC” was run?
A: The activity (1-depletion score) was 0.93.
